Data: patent US20150344540A1, “NOVEL GLP-1 RECEPTOR AGONISTS WITH CHOLESTEROL EFFLUX ACTIVITY” (NOVO NORDISK A/S, priority 2012, published 2015)
Where no end group is shown, it is not given here. [ ]: non-standard residue; d: D form. The star is where a group is joined. Desaminohistidyl = O=C(CCc1c[nH]cn1)*; Aib = CC(C)(N)C(=O)O

These binders were tested against human GLP-1 receptor (human, UniProt P43220) (assay: cell-based or functional assay).

Binder	CRE luciferase EC50, 0% HSA [nM]	CRE luciferase EC50, 1% HSA [nM]
H[Aib]EGTFTSDVSSYLEGQAVKQFIAWLVNK[Aib]AEFL-NH2 (N-terminus assumed; SMILES CC[C@H](C)[C@H](NC(=O)[C@H](Cc1ccccc1)NC(=O)[C@H](CCC(N)=O)NC(=O)[C@H](CCCCN)NC(=O)[C@@H](NC(=O)[C@H](C)NC(=O)[C@H](CCC(N)=O)NC(=O)CNC(=O)[C@H](CCC(=O)O)NC(=O)[C@H](CC(C)C)NC(=O)[C@H](Cc1ccc(O)cc1)NC(=O)[C@H](CO)NC(=O)[C@H](CO)NC(=O)[C@@H](NC(=O)[C@H](CC(=O)O)NC(=O)[C@H](CO)NC(=O)[C@@H](NC(=O)[C@H](Cc1ccccc1)NC(=O)[C@@H](NC(=O)CNC(=O)[C@H](CCC(=O)O)NC(=O)C(C)(C)NC(=O)[C@@H](N)Cc1c[nH]cn1)[C@@H](C)O)[C@@H](C)O)C(C)C)C(C)C)C(=O)N[C@@H](C)C(=O)N[C@@H](Cc1c[nH]c2ccccc12)C(=O)N[C@@H](CC(C)C)C(=O)N[C@H](C(=O)N[C@@H](CC(N)=O)C(=O)N[C@@H](CCCCN)C(=O)NC(C)(C)C(=O)N[C@@H](C)C(=O)N[C@@H](CCC(=O)O)C(=O)N[C@@H](Cc1ccccc1)C(=O)N[C@@H](CC(C)C)C(N)=O)C(C)C) [[Aib8,Val25,Gln27,Asn34,Lys35,Aib36,Ala37]-GLP-1-(7-37)-peptidyl-Glu-Phe-Leu amide]	0.235	0.109
H[Aib]EGTFTSDVSSYLEGEAVREFIAWLVEK[Aib]KEFL-NH2 (N-terminus assumed; SMILES CC[C@H](C)[C@H](NC(=O)[C@H](Cc1ccccc1)NC(=O)[C@H](CCC(=O)O)NC(=O)[C@H](CCCNC(=N)N)NC(=O)[C@@H](NC(=O)[C@H](C)NC(=O)[C@H](CCC(=O)O)NC(=O)CNC(=O)[C@H](CCC(=O)O)NC(=O)[C@H](CC(C)C)NC(=O)[C@H](Cc1ccc(O)cc1)NC(=O)[C@H](CO)NC(=O)[C@H](CO)NC(=O)[C@@H](NC(=O)[C@H](CC(=O)O)NC(=O)[C@H](CO)NC(=O)[C@@H](NC(=O)[C@H](Cc1ccccc1)NC(=O)[C@@H](NC(=O)CNC(=O)[C@H](CCC(=O)O)NC(=O)C(C)(C)NC(=O)[C@@H](N)Cc1c[nH]cn1)[C@@H](C)O)[C@@H](C)O)C(C)C)C(C)C)C(=O)N[C@@H](C)C(=O)N[C@@H](Cc1c[nH]c2ccccc12)C(=O)N[C@@H](CC(C)C)C(=O)N[C@H](C(=O)N[C@@H](CCC(=O)O)C(=O)N[C@@H](CCCCN)C(=O)NC(C)(C)C(=O)N[C@@H](CCCCN)C(=O)N[C@@H](CCC(=O)O)C(=O)N[C@@H](Cc1ccccc1)C(=O)N[C@@H](CC(C)C)C(N)=O)C(C)C) [[Aib8,Glu23,Val25,Arg26,Glu34,Lys35,Aib36,Lys37]-GLP-1-(7-37)-peptidyl-Glu-Phe-Leu amide]	0.076	0.028
H[Aib]EGTFTSDVSSYLEGEAVKEFIQWLLEK[Aib]KEFL-NH2 (N-terminus assumed; SMILES CC[C@H](C)[C@H](NC(=O)[C@H](Cc1ccccc1)NC(=O)[C@H](CCC(=O)O)NC(=O)[C@H](CCCCN)NC(=O)[C@@H](NC(=O)[C@H](C)NC(=O)[C@H](CCC(=O)O)NC(=O)CNC(=O)[C@H](CCC(=O)O)NC(=O)[C@H](CC(C)C)NC(=O)[C@H](Cc1ccc(O)cc1)NC(=O)[C@H](CO)NC(=O)[C@H](CO)NC(=O)[C@@H](NC(=O)[C@H](CC(=O)O)NC(=O)[C@H](CO)NC(=O)[C@@H](NC(=O)[C@H](Cc1ccccc1)NC(=O)[C@@H](NC(=O)CNC(=O)[C@H](CCC(=O)O)NC(=O)C(C)(C)NC(=O)[C@@H](N)Cc1c[nH]cn1)[C@@H](C)O)[C@@H](C)O)C(C)C)C(C)C)C(=O)N[C@@H](CCC(N)=O)C(=O)N[C@@H](Cc1c[nH]c2ccccc12)C(=O)N[C@@H](CC(C)C)C(=O)N[C@@H](CC(C)C)C(=O)N[C@@H](CCC(=O)O)C(=O)N[C@@H](CCCCN)C(=O)NC(C)(C)C(=O)N[C@@H](CCCCN)C(=O)N[C@@H](CCC(=O)O)C(=O)N[C@@H](Cc1ccccc1)C(=O)N[C@@H](CC(C)C)C(N)=O) [[Aib8,Glu23,Val25,Gln30,Leu33,Glu34,Lys35,Aib36,Lys37]-GLP-1-(7-37)-peptidyl-Glu-Phe-Leu amide]	0.238	0.061
H[Aib]EGTFTSDVSSYLEGQAVKEFIAWLVNK[Aib]AEFL-NH2 (N-terminus assumed; SMILES CC[C@H](C)[C@H](NC(=O)[C@H](Cc1ccccc1)NC(=O)[C@H](CCC(=O)O)NC(=O)[C@H](CCCCN)NC(=O)[C@@H](NC(=O)[C@H](C)NC(=O)[C@H](CCC(N)=O)NC(=O)CNC(=O)[C@H](CCC(=O)O)NC(=O)[C@H](CC(C)C)NC(=O)[C@H](Cc1ccc(O)cc1)NC(=O)[C@H](CO)NC(=O)[C@H](CO)NC(=O)[C@@H](NC(=O)[C@H](CC(=O)O)NC(=O)[C@H](CO)NC(=O)[C@@H](NC(=O)[C@H](Cc1ccccc1)NC(=O)[C@@H](NC(=O)CNC(=O)[C@H](CCC(=O)O)NC(=O)C(C)(C)NC(=O)[C@@H](N)Cc1c[nH]cn1)[C@@H](C)O)[C@@H](C)O)C(C)C)C(C)C)C(=O)N[C@@H](C)C(=O)N[C@@H](Cc1c[nH]c2ccccc12)C(=O)N[C@@H](CC(C)C)C(=O)N[C@H](C(=O)N[C@@H](CC(N)=O)C(=O)N[C@@H](CCCCN)C(=O)NC(C)(C)C(=O)N[C@@H](C)C(=O)N[C@@H](CCC(=O)O)C(=O)N[C@@H](Cc1ccccc1)C(=O)N[C@@H](CC(C)C)C(N)=O)C(C)C) [[Aib8,Val25,Asn34,Lys35,Aib36,Ala37]-GLP-1-(7-37)-peptidyl-Glu-Phe-Leu amide]	0.108	0.062
[Desaminohistidyl][Aib]EGTFTSDVSSYLEGEAVKEFIAWLVEKVKEFL-NH2 (SMILES CC[C@H](C)[C@H](NC(=O)[C@H](Cc1ccccc1)NC(=O)[C@H](CCC(=O)O)NC(=O)[C@H](CCCCN)NC(=O)[C@@H](NC(=O)[C@H](C)NC(=O)[C@H](CCC(=O)O)NC(=O)CNC(=O)[C@H](CCC(=O)O)NC(=O)[C@H](CC(C)C)NC(=O)[C@H](Cc1ccc(O)cc1)NC(=O)[C@H](CO)NC(=O)[C@H](CO)NC(=O)[C@@H](NC(=O)[C@H](CC(=O)O)NC(=O)[C@H](CO)NC(=O)[C@@H](NC(=O)[C@H](Cc1ccccc1)NC(=O)[C@@H](NC(=O)CNC(=O)[C@H](CCC(=O)O)NC(=O)C(C)(C)NC(=O)CCc1c[nH]cn1)[C@@H](C)O)[C@@H](C)O)C(C)C)C(C)C)C(=O)N[C@@H](C)C(=O)N[C@@H](Cc1c[nH]c2ccccc12)C(=O)N[C@@H](CC(C)C)C(=O)N[C@H](C(=O)N[C@@H](CCC(=O)O)C(=O)N[C@@H](CCCCN)C(=O)N[C@H](C(=O)N[C@@H](CCCCN)C(=O)N[C@@H](CCC(=O)O)C(=O)N[C@@H](Cc1ccccc1)C(=O)N[C@@H](CC(C)C)C(N)=O)C(C)C)C(C)C) [[desamino-His7,Aib8,Glu23,Val25,Glu34,Lys35,Val36,Lys37]-GLP-1-(7-37)-peptidyl-Glu-Phe-Leu amide]	0.886	0.242
HGEGTFTSDVSSYLEGEAVKEFIAWLVEKVKEFL-NH2 [[Gly8,Glu23,Val25,Glu34,Lys35,Val36,Lys37]-GLP-1-(7-37)-peptidyl-Glu-Phe-Leu amide]	6.08	1.38
H[Aib]EGTFTSDVSSYLEGEAVREFVQWLLEK[Aib]KEFL-NH2 (N-terminus assumed; SMILES CC(C)C[C@H](NC(=O)[C@H](Cc1ccccc1)NC(=O)[C@H](CCC(=O)O)NC(=O)[C@H](CCCCN)NC(=O)C(C)(C)NC(=O)[C@H](CCCCN)NC(=O)[C@H](CCC(=O)O)NC(=O)[C@H](CC(C)C)NC(=O)[C@H](CC(C)C)NC(=O)[C@H](Cc1c[nH]c2ccccc12)NC(=O)[C@H](CCC(N)=O)NC(=O)[C@@H](NC(=O)[C@H](Cc1ccccc1)NC(=O)[C@H](CCC(=O)O)NC(=O)[C@H](CCCNC(=N)N)NC(=O)[C@@H](NC(=O)[C@H](C)NC(=O)[C@H](CCC(=O)O)NC(=O)CNC(=O)[C@H](CCC(=O)O)NC(=O)[C@H](CC(C)C)NC(=O)[C@H](Cc1ccc(O)cc1)NC(=O)[C@H](CO)NC(=O)[C@H](CO)NC(=O)[C@@H](NC(=O)[C@H](CC(=O)O)NC(=O)[C@H](CO)NC(=O)[C@@H](NC(=O)[C@H](Cc1ccccc1)NC(=O)[C@@H](NC(=O)CNC(=O)[C@H](CCC(=O)O)NC(=O)C(C)(C)NC(=O)[C@@H](N)Cc1c[nH]cn1)[C@@H](C)O)[C@@H](C)O)C(C)C)C(C)C)C(C)C)C(N)=O)	0.094	0.029
H[Aib]EGTFTSDVSSYLEGEAVKEFIAWLVEKVKEHL-NH2 (N-terminus assumed; SMILES CC[C@H](C)[C@H](NC(=O)[C@H](Cc1ccccc1)NC(=O)[C@H](CCC(=O)O)NC(=O)[C@H](CCCCN)NC(=O)[C@@H](NC(=O)[C@H](C)NC(=O)[C@H](CCC(=O)O)NC(=O)CNC(=O)[C@H](CCC(=O)O)NC(=O)[C@H](CC(C)C)NC(=O)[C@H](Cc1ccc(O)cc1)NC(=O)[C@H](CO)NC(=O)[C@H](CO)NC(=O)[C@@H](NC(=O)[C@H](CC(=O)O)NC(=O)[C@H](CO)NC(=O)[C@@H](NC(=O)[C@H](Cc1ccccc1)NC(=O)[C@@H](NC(=O)CNC(=O)[C@H](CCC(=O)O)NC(=O)C(C)(C)NC(=O)[C@@H](N)Cc1c[nH]cn1)[C@@H](C)O)[C@@H](C)O)C(C)C)C(C)C)C(=O)N[C@@H](C)C(=O)N[C@@H](Cc1c[nH]c2ccccc12)C(=O)N[C@@H](CC(C)C)C(=O)N[C@H](C(=O)N[C@@H](CCC(=O)O)C(=O)N[C@@H](CCCCN)C(=O)N[C@H](C(=O)N[C@@H](CCCCN)C(=O)N[C@@H](CCC(=O)O)C(=O)N[C@@H](Cc1c[nH]cn1)C(=O)N[C@@H](CC(C)C)C(N)=O)C(C)C)C(C)C) [[Aib8,Glu23,Val25,Glu34,Lys35,Val36,Lys37]-GLP-1-(7-37)-peptidyl-Glu-His-Leu amide]	0.089	0.116
HGEGTFTSDVSSYLEGEAVKEFIAWLVEKVKEHL-NH2 [[Gly8,Glu23,Val25,Glu34,Lys35,Val36,Lys37]-GLP-1-(7-37)-peptidyl-Glu-His-Leu amide]	0.337	0.096
